# In the Human Domainome abundance scans (Beltran et al. 2025):
# ± gives the uncertainty stated by the source.
# B1: PDZ and LIM domain protein 2, residues 284 to 339; numbered along this chain, Q96JY6 (parent)
# chain: HTCEKCSTSIANQAVRIQEGRYRHPGCYTCADCGLNLKMRGHFWVGDELYCEKHAR
# Variants of: B1
# Test: abundance fitness (aPCA) (normalised: wild type 0, dead -1); higher = more abundant; growth selection in yeast, the domain comes from the species named
# Details: Homo sapiens
row,Variant,abundance fitness
1,HTCEKCSESIANQAVRIQEGRYRHPGCYTCADCGLNLKMRGHFWVGDELYCEKHAR [T8E],0.387 ± 0.1
2,HTCEKCSFSIANQAVRIQEGRYRHPGCYTCADCGLNLKMRGHFWVGDELYCEKHAR [T8F],-0.111 ± 0.15
3,HTCEKCSLSIANQAVRIQEGRYRHPGCYTCADCGLNLKMRGHFWVGDELYCEKHAR [T8L],0.004 ± 0.063
4,HTCEKCSQSIANQAVRIQEGRYRHPGCYTCADCGLNLKMRGHFWVGDELYCEKHAR [T8Q],0.056 ± 0.074
5,HTCEKCSHSIANQAVRIQEGRYRHPGCYTCADCGLNLKMRGHFWVGDELYCEKHAR [T8H],0.173 ± 0.095
6,HTCEKCSKSIANQAVRIQEGRYRHPGCYTCADCGLNLKMRGHFWVGDELYCEKHAR [T8K],0.255 ± 0.066
7,HTCEKCSYSIANQAVRIQEGRYRHPGCYTCADCGLNLKMRGHFWVGDELYCEKHAR [T8Y],0.119 ± 0.13
8,HTCEKCSNSIANQAVRIQEGRYRHPGCYTCADCGLNLKMRGHFWVGDELYCEKHAR [T8N],0.221 ± 0.13
9,HTCEKCSWSIANQAVRIQEGRYRHPGCYTCADCGLNLKMRGHFWVGDELYCEKHAR [T8W],-0.068 ± 0.069
10,HTCEKCSISIANQAVRIQEGRYRHPGCYTCADCGLNLKMRGHFWVGDELYCEKHAR [T8I],-0.361 ± 0.15
11,HTCEKCSVSIANQAVRIQEGRYRHPGCYTCADCGLNLKMRGHFWVGDELYCEKHAR [T8V],0.189 ± 0.072
12,HTCEKCSGSIANQAVRIQEGRYRHPGCYTCADCGLNLKMRGHFWVGDELYCEKHAR [T8G],0.153 ± 0.064
13,HTCEKCSMSIANQAVRIQEGRYRHPGCYTCADCGLNLKMRGHFWVGDELYCEKHAR [T8M],-0.099 ± 0.085
14,HTCEKCSSSIANQAVRIQEGRYRHPGCYTCADCGLNLKMRGHFWVGDELYCEKHAR [T8S],0.139 ± 0.086
15,HTCEKCSASIANQAVRIQEGRYRHPGCYTCADCGLNLKMRGHFWVGDELYCEKHAR [T8A],0.308 ± 0.06
16,HTCEKCSDSIANQAVRIQEGRYRHPGCYTCADCGLNLKMRGHFWVGDELYCEKHAR [T8D],0.232 ± 0.1
17,HTCEKCSTYIANQAVRIQEGRYRHPGCYTCADCGLNLKMRGHFWVGDELYCEKHAR [S9Y],-1.02 ± 0.31
18,HTCEKCSTMIANQAVRIQEGRYRHPGCYTCADCGLNLKMRGHFWVGDELYCEKHAR [S9M],-0.62 ± 0.11
19,HTCEKCSTWIANQAVRIQEGRYRHPGCYTCADCGLNLKMRGHFWVGDELYCEKHAR [S9W],-1.01 ± 0.14
20,HTCEKCSTHIANQAVRIQEGRYRHPGCYTCADCGLNLKMRGHFWVGDELYCEKHAR [S9H],-0.539 ± 0.18
21,HTCEKCSTTIANQAVRIQEGRYRHPGCYTCADCGLNLKMRGHFWVGDELYCEKHAR [S9T],-0.271 ± 0.085
22,HTCEKCSTDIANQAVRIQEGRYRHPGCYTCADCGLNLKMRGHFWVGDELYCEKHAR [S9D],0.277 ± 0.13
23,HTCEKCSTQIANQAVRIQEGRYRHPGCYTCADCGLNLKMRGHFWVGDELYCEKHAR [S9Q],-0.079 ± 0.12
24,HTCEKCSTGIANQAVRIQEGRYRHPGCYTCADCGLNLKMRGHFWVGDELYCEKHAR [S9G],-0.08 ± 0.065

row,Variant,abundance fitness
1,HTCEKCSTIIANQAVRIQEGRYRHPGCYTCADCGLNLKMRGHFWVGDELYCEKHAR [S9I],-0.764 ± 0.34
2,HTCEKCSTVIANQAVRIQEGRYRHPGCYTCADCGLNLKMRGHFWVGDELYCEKHAR [S9V],-0.485 ± 0.08
3,HTCEKCSTFIANQAVRIQEGRYRHPGCYTCADCGLNLKMRGHFWVGDELYCEKHAR [S9F],-1.09 ± 0.28
4,HTCEKCSTPIANQAVRIQEGRYRHPGCYTCADCGLNLKMRGHFWVGDELYCEKHAR [S9P],-0.376 ± 0.12
5,HTCEKCSTRIANQAVRIQEGRYRHPGCYTCADCGLNLKMRGHFWVGDELYCEKHAR [S9R],-0.34 ± 0.083
6,HTCEKCSTCIANQAVRIQEGRYRHPGCYTCADCGLNLKMRGHFWVGDELYCEKHAR [S9C],-0.365 ± 0.073
7,HTCEKCSTLIANQAVRIQEGRYRHPGCYTCADCGLNLKMRGHFWVGDELYCEKHAR [S9L],-0.767 ± 0.12
8,HTCEKCSTAIANQAVRIQEGRYRHPGCYTCADCGLNLKMRGHFWVGDELYCEKHAR [S9A],0.199 ± 0.08
9,HTCEKCSTNIANQAVRIQEGRYRHPGCYTCADCGLNLKMRGHFWVGDELYCEKHAR [S9N],-0.058 ± 0.12
10,HTCEKCSTSIGNQAVRIQEGRYRHPGCYTCADCGLNLKMRGHFWVGDELYCEKHAR [A11G],0.017 ± 0.059
11,HTCEKCSTSIHNQAVRIQEGRYRHPGCYTCADCGLNLKMRGHFWVGDELYCEKHAR [A11H],-0.085 ± 0.15
12,HTCEKCSTSILNQAVRIQEGRYRHPGCYTCADCGLNLKMRGHFWVGDELYCEKHAR [A11L],-0.827 ± 0.12
13,HTCEKCSTSIPNQAVRIQEGRYRHPGCYTCADCGLNLKMRGHFWVGDELYCEKHAR [A11P],0.118 ± 0.11
14,HTCEKCSTSISNQAVRIQEGRYRHPGCYTCADCGLNLKMRGHFWVGDELYCEKHAR [A11S],0.196 ± 0.073
15,HTCEKCSTSIQNQAVRIQEGRYRHPGCYTCADCGLNLKMRGHFWVGDELYCEKHAR [A11Q],-0.253 ± 0.14
16,HTCEKCSTSICNQAVRIQEGRYRHPGCYTCADCGLNLKMRGHFWVGDELYCEKHAR [A11C],-0.446 ± 0.13
17,HTCEKCSTSINNQAVRIQEGRYRHPGCYTCADCGLNLKMRGHFWVGDELYCEKHAR [A11N],0.351 ± 0.13
18,HTCEKCSTSITNQAVRIQEGRYRHPGCYTCADCGLNLKMRGHFWVGDELYCEKHAR [A11T],-0.016 ± 0.11
19,HTCEKCSTSIRNQAVRIQEGRYRHPGCYTCADCGLNLKMRGHFWVGDELYCEKHAR [A11R],-0.231 ± 0.053
20,HTCEKCSTSIDNQAVRIQEGRYRHPGCYTCADCGLNLKMRGHFWVGDELYCEKHAR [A11D],0.321 ± 0.069
21,HTCEKCSTSIFNQAVRIQEGRYRHPGCYTCADCGLNLKMRGHFWVGDELYCEKHAR [A11F],-1.16 ± 0.49
22,HTCEKCSTSIMNQAVRIQEGRYRHPGCYTCADCGLNLKMRGHFWVGDELYCEKHAR [A11M],-0.521 ± 0.18
23,HTCEKCSTSIYNQAVRIQEGRYRHPGCYTCADCGLNLKMRGHFWVGDELYCEKHAR [A11Y],-0.643 ± 0.26
